Experimental findings from article PMC3861647, “Characterization of Fibrinogen Binding by Glycoproteins Srr1 and Srr2 of Streptococcus agalactiae*” (The Journal of Biological Chemistry, 2013) are described below.

The target in test [1] is T1, Srr2-BR (untagged recombinant binding region of Srr2) (Streptococcus agalactiae (strain COH1)).
T1 construct: I took it to be this one; also called untagged Srr2-BR; recombinant Srr2; source: E. coli, purified (nickel-nitrilotriacetic acid or anti-FLAG M2-agarose)
T1 sequence (P02671 36-866): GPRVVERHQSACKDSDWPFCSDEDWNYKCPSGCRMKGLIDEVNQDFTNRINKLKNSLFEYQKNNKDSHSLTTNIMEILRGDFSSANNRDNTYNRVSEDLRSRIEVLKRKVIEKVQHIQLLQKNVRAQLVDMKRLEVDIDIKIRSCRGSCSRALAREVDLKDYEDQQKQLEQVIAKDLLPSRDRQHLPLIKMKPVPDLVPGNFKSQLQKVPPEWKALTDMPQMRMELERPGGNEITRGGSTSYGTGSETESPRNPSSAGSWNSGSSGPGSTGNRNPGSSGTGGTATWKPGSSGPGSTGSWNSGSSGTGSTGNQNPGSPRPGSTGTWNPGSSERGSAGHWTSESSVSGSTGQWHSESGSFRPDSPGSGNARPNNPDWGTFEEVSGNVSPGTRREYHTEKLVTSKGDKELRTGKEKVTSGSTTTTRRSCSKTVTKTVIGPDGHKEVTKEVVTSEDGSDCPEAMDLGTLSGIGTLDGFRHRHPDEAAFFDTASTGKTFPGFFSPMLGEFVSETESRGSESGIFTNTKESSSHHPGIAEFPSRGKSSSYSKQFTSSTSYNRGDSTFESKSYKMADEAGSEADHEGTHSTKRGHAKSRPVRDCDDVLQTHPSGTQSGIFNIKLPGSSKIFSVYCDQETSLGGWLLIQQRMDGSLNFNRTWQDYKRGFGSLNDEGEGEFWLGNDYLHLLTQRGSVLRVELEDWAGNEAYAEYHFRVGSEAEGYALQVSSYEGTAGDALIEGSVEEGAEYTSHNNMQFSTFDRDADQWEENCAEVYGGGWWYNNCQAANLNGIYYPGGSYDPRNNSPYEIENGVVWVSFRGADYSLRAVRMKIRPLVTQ
The test is described as follows: SPR; BIAcore T100; fibrinogen amine-coupled to a CM5 chip; Srr1-BR or Srr2-BR 1.25–160 μM flowed at 10 μl/min; KD from equilibrium responses. Conditions: both partners purified.

The target of test [2] is T2, Srr1-BR (untagged recombinant binding region of Srr1) (Streptococcus agalactiae (strain NCTC …)).
T2 construct: I took it to be this one; also called untagged Srr1-BR; recombinant Srr1; source: E. coli, purified (nickel-nitrilotriacetic acid or anti-FLAG M2-agarose)
T2 sequence (P02671 36-866): as above
The test is described as above. The following applies: both partners purified.

B1: purified human fibrinogen (complex)
chain 1: ADSGEGDFLAEGGGVRGPRVVERHQSACKDSDWPFCSDEDWNYKCPSGCRMKGLIDEVNQDFTNRINKLKNSLFEYQKNNKDSHSLTTNIMEILRGDFSSANNRDNTYNRVSEDLRSRIEVLKRKVIEKVQHIQLLQKNVRAQLVDMKRLEVDIDIKIRSCRGSCSRALAREVDLKDYEDQQKQLEQVIAKDLLPSRDRQHLPLIKMKPVPDLVPGNFKSQLQKVPPEWKALTDMPQMRMELERPGGNEITRGGSTSYGTGSETESPRNPSSAGSWNSGSSGPGSTGNRNPGSSGTGGTATWKPGSSGPGSTGSWNSGSSGTGSTGNQNPGSPRPGSTGTWNPGSSERGSAGHWTSESSVSGSTGQWHSESGSFRPDSPGSGNARPNNPDWGTFEEVSGNVSPGTRREYHTEKLVTSKGDKELRTGKEKVTSGSTTTTRRSCSKTVTKTVIGPDGHKEVTKEVVTSEDGSDCPEAMDLGTLSGIGTLDGFRHRHPDEAAFFDTASTGKTFPGFFSPMLGEFVSETESRGSESGIFTNTKESSSHHPGIAEFPSRGKSSSYSKQFTSSTSYNRGDSTFESKSYKMADEAGSEADHEGTHSTKRGHAKSRPV
chain 2: QGVNDNEEGFFSARGHRPLDKKREEAPSLRPAPPPISGGGYRARPAKAAATQKKVERKAPDAGGCLHADPDLGVLCPTGCQLQEALLQQERPIRNSVDELNNNVEAVSQTSSSSFQYMYLLKDLWQKRQKQVKDNENVVNEYSSELEKHQLYIDETVNSNIPTNLRVLRSILENLRSKIQKLESDVSAQMEYCRTPCTVSCNIPVVSGKECEEIIRKGGETSEMYLIQPDSSVKPYRVYCDMNTENGGWTVIQNRQDGSVDFGRKWDPYKQGFGNVATNTDGKNYCGLPGEYWLGNDKISQLTRMGPTELLIEMEDWKGDKVKAHYGGFTVQNEANKYQISVNKYRGTAGNALMDGASQLMGENRTMTIHNGMFFSTYDRDNDGWLTSDPRKQCSKEDGGGWWYNRCHAANPNGRYYWGGQYTWDMAKHGTDDGVVWMNWKGSWYSMRKMSMKIRPFFPQQ
chain 3: YVATRDNCCILDERFGSYCPTTCGIADFLSTYQTKVDKDLQSLEDILHQVENKTSEVKQLIKAIQLTYNPDESSKPNMIDAATLKSRKMLEEIMKYEASILTHDSSIRYLQEIYNSNNQKIVNLKEKVAQLEAQCQEPCKDTVQIHDITGKDCQDIANKGAKQSGLYFIKPLKANQQFLVYCEIDGSGNGWTVFQKRLDGSVDFKKNWIQYKEGFGHLSPTGTTEFWLGNEKIHLISTQSAIPYALRVELEDWNGRTSTADYAMFKVGPEADKYRLTYAYFAGGDAGDAFDGFDFGDDPSDKFFTSHNGMQFSTWDNDNDKFEGNCAEQDGSGWWMNKCHAGHLNGVYYQGGTYSKASTPNGYDNGIIWATWKTRWYSMKKTTMKIIPFNRLTIGEGQQHHLGGAKQAGDV
modifications: plasma-derived disulfide-linked hexamer (AαBβγ)2, N-glycosylated; Aα taken as the 610-residue circulating form (paper's Aα(1-610)), γ as the major γA form with the C-terminus printed in the text …
On to B1, for which the Kd (in general, a measure of binding affinity in units of concentration) in test [1] is 3.7 µM; in test [2] it was 21 µM.
